Numbering of substitutions follows the chain as printed. Names may count otherwise.
T1: EsCas13d, nuclease-dead (Eubacterium siraeum, UniProt B0MS50, R295A;H300A;R849A;H854A)
T1 sequence: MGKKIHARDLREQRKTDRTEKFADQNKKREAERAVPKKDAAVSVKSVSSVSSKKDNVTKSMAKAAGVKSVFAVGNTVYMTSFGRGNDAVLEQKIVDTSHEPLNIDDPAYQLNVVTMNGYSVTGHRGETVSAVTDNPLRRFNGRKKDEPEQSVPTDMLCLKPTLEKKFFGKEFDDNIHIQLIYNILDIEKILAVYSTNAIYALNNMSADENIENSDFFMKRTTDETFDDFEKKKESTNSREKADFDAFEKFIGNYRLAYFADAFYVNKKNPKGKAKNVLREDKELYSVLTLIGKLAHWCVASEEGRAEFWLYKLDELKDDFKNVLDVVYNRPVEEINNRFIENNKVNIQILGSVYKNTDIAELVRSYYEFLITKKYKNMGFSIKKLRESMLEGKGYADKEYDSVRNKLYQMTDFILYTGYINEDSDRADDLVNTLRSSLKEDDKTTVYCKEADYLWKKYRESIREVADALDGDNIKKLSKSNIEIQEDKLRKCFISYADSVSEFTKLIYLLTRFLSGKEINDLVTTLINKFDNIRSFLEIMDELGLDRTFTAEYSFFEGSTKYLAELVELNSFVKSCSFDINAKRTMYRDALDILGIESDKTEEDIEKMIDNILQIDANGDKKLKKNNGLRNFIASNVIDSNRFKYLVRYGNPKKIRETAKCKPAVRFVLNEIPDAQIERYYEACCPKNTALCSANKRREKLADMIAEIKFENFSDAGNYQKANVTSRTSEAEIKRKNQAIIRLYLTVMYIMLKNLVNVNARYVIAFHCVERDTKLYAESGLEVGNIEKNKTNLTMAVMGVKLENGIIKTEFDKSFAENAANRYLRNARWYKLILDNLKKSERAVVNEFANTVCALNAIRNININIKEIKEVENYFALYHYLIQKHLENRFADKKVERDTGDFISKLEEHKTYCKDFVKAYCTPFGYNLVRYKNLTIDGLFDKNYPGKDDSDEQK

B1: target 3 insA 3' of 2,insU 3' of 1 (mixed)
RNA 1: CACCCGUGCAAAAUUGCAGGGGUCUAAAACGACCUGAAUAUUUCAGAUCAAA
RNA 2: GGGAAUGGAUCCACAUCUACGAAUUCGUUUUUGAUCUGAAAUAUUCAGGUACUUGCAGAUCGGAAGAGCACACGU
B2: target 3 G3C (mixed)
RNA 1: B1 RNA 1
RNA 2: GGGAAUGGAUCCACAUCUACGAAUUCGUUUUUGAUCUGAAAUAUUCAGCUCUGCAGAUCGGAAGAGCACACGU
B3: target 3 insC 3' of 8,insG 3' of 6 (mixed)
RNA 1: B1 RNA 1
RNA 2: B1 RNA 2 with U45C, C46U, A47C, G49A, U50G, A51G, C52U, U53C
B4: target 3 complement block 4-9 (mixed)
RNA 1: B1 RNA 1
RNA 2: B2 RNA 2 with A43U, U44A, U45A, C46G, A47U, G48C, C49G
B5: target 3 A5C,U22A (mixed)
RNA 1: B1 RNA 1
RNA 2: B2 RNA 2 with U30A, A47C, C49G
B6: target 3 U2A,U7C (mixed)
RNA 1: B1 RNA 1
RNA 2: B2 RNA 2 with U45C, C49G, U50A
B7: target 3 insC 3' of 22,insA 3' of 3 (mixed)
RNA 1: B1 RNA 1
RNA 2: GGGAAUGGAUCCACAUCUACGAAUUCGUUUCUUGAUCUGAAAUAUUCAGGAUCUGCAGAUCGGAAGAGCACACGU
B8: target 3 G3C,U7A (mixed)
RNA 1: B1 RNA 1
RNA 2: B2 RNA 2 with U45A
B9: target 3 U2C,G14A (mixed)
RNA 1: B1 RNA 1
RNA 2: B2 RNA 2 with G38A, C49G, U50C
B10: target 3 insA 3' of 22,insU 3' of 11 (mixed)
RNA 1: B1 RNA 1
RNA 2: B7 RNA 2 with C31A, A44U, U45A, C47U, A48C, G49A, A51G
B11: target 3 G3A,A5G (mixed)
RNA 1: B1 RNA 1
RNA 2: B2 RNA 2 with A47G, C49A
B12: target 3 C1A,G3C (mixed)
RNA 1: B1 RNA 1
RNA 2: B2 RNA 2 with C51A
B13: target 3 insA 3' of 14,insG 3' of 5 (mixed)
RNA 1: B1 RNA 1
RNA 2: B7 RNA 2 with C31U, U33G, G34A, A35U, U36C, C37U, U38G, G39A, A51G
B14: target 3 C1U,U2C (mixed)
RNA 1: B1 RNA 1
RNA 2: B2 RNA 2 with C49G, U50C, C51U
B15: target 3 insC 3' of 9,insU 3' of 3 (mixed)
RNA 1: B1 RNA 1
RNA 2: B1 RNA 2 with U44C, C46U, A47C, G48A, U50G, A51U, C52U, U53C
B16: target 3 U2A,U22G (mixed)
RNA 1: B1 RNA 1
RNA 2: B2 RNA 2 with U30G, C49G, U50A
B17: target 3 insA 3' of 7 (mixed)
RNA 1: B1 RNA 1
RNA 2: GGGAAUGGAUCCACAUCUACGAAUUCGUUUUUGAUCUGAAAUAUUACAGGUCUGCAGAUCGGAAGAGCACACGU
B18: target 3 C6U,A12C (mixed)
RNA 1: B1 RNA 1
RNA 2: B2 RNA 2 with A40C, C46U, C49G
B19: target 3 insU 3' of 4,insU 3' of 1 (mixed)
RNA 1: B1 RNA 1
RNA 2: B1 RNA 2 with G49U, U50G, A51U
B20: target 3 U2G,G4A (mixed)
RNA 1: B1 RNA 1
RNA 2: B2 RNA 2 with G48A, C49G, U50G
B21: target 3 insU 3' of 9,insA 3' of 6 (mixed)
RNA 1: B1 RNA 1
RNA 2: B1 RNA 2 with C46U, A47C, G48A, G49A, U50G, A51G, C52U, U53C
B22: target 3 insU 3' of 4,insG 3' of 1 (mixed)
RNA 1: B1 RNA 1
RNA 2: B1 RNA 2 with G49U, U50G, A51U, U53G
B23: target 3 insU 3' of 22,insG 3' of 1 (mixed)
RNA 1: B1 RNA 1
RNA 2: B7 RNA 2 with C31U, A51U, U52C, C53G
B24: target 3 insU 3' of 16,insU 3' of 4 (mixed)
RNA 1: B1 RNA 1
RNA 2: B7 RNA 2 with C31U, U33G, G34A, A35U, U36C, C37U, G50U, A51G
B25: target 3 G3U,U7C (mixed)
RNA 1: B1 RNA 1
RNA 2: B2 RNA 2 with U45C, C49U
B26: target 3 insG 3' of 7,insA 3' of 7 (mixed)
RNA 1: B1 RNA 1
RNA 2: B1 RNA 2 with C46G, G48C, G49A, U50G, A51G, C52U, U53C
B27: target 3 C1G,G3C (mixed)
RNA 1: B1 RNA 1
RNA 2: B2 RNA 2 with C51G
B28: target 3 insA 3' of 7,insG 3' of 7 (mixed)
RNA 1: B1 RNA 1
RNA 2: B1 RNA 2 with C46A, A47G, G48C, G49A, U50G, A51G, C52U, U53C
B29: target 3 U8C (mixed)
RNA 1: B1 RNA 1
RNA 2: B2 RNA 2 with U44C, C49G
B30: target 3 C1G,C6U (mixed)
RNA 1: B1 RNA 1
RNA 2: B2 RNA 2 with C46U, C49G, C51G
B31: target 1 insG 3' of 21,insA 3' of 3 (mixed)
RNA 1: CACCCGUGCAAAAAUGCAGGGGUCUAAAACUGAGCGGAUAACCUCUCUAUGG
RNA 2: GGGAAUGGAUCCACAUCUACGAAUUCGUACCGAUAGAGAGGUUAUCCGCUACACCGAGAUCGGAAGAGCACACGU
B32: target 1 C6A,U11G (mixed)
RNA 1: B31 RNA 1
RNA 2: GGGAAUGGAUCCACAUCUACGAAUUCGUACCAUAGAGAGGGUAUCAGCUCACCGAGAUCGGAAGAGCACACGU
B33: target 1 G5C,G15U (mixed)
RNA 1: B31 RNA 1
RNA 2: B32 RNA 2 with G37U, G41U, A46C, G47C

target: T1, EsCas13d, nuclease-dead; test: crRNA (strand 1, pre-loaded); Mg2+; 40 mM Tris-HCl pH 7.5, 150 mM NaCl, 6 mM MgCl2, 1 mM DTT, 0.1% Tween-20, 0.2 mg/ml BSA; 25 C; 10 min per concentration, then washed; conditions: tags: His6-TwinStrep-SUMO cleaved; N-terminal SNAP kept (SNAP-Surface 488); label: 3' end held by stalled T7 RNA polymerase

**Q.** B1 was tested. Which Kd did it give?
**A.** 85.5 ± 20.5 nM

**Q.** With B2 as the binder, how does the Kd read?
**A.** 19.9 ± 1.35 nM

**Q.** How did the Kd turn out when B3 was run?
**A.** 79.5 ± 20.5 nM

**Q.** With B4 as the binder, how does the Kd read?
**A.** 67.5 ± 18 nM

**Q.** How did the Kd turn out when B5 was run?
**A.** 60.5 ± 10.5 nM

**Q.** With B6 as the binder, how does the Kd read?
**A.** 38 ± 13 nM

**Q.** With B7 as the binder, how does the Kd read?
**A.** 65.5 ± 14 nM

**Q.** B8 was tested. Which Kd did it give?
**A.** 32.9 ± 3.6 nM

**Q.** Which Kd does the source give for B9 here?
**A.** ~64.5 nM

**Q.** For B10, which Kd is on record?
**A.** 72.5 ± 15.5 nM

**Q.** Which Kd does the source give for B11 here?
**A.** 42.5 ± 6 nM

**Q.** B12 was tested. Which Kd did it give?
**A.** 65.5 ± 29.5 nM

**Q.** With B13 as the binder, how does the Kd read?
**A.** 105 ± 31 nM

**Q.** Which Kd does the source give for B14 here?
**A.** 54 ± 18.5 nM

**Q.** B15 was tested. Which Kd did it give?
**A.** 114 ± 29 nM

**Q.** For B16, which Kd is on record?
**A.** 65.5 ± 11.5 nM

**Q.** How did the Kd turn out when B17 was run?
**A.** 44 ± 8.5 nM

**Q.** With B18 as the binder, how does the Kd read?
**A.** 72 ± 12.5 nM

**Q.** How did the Kd turn out when B19 was run?
**A.** 37 ± 7 nM

**Q.** How did the Kd turn out when B20 was run?
**A.** 2.01 ± 0.17 nM

**Q.** For B21, which Kd is on record?
**A.** 85 ± 40 nM

**Q.** For B22, which Kd is on record?
**A.** 43 ± 11.5 nM

**Q.** Which Kd does the source give for B23 here?
**A.** 32.5 ± 5.5 nM

**Q.** B24 was tested. Which Kd did it give?
**A.** 37 ± 7 nM

**Q.** How did the Kd turn out when B25 was run?
**A.** 86 ± 36 nM

**Q.** With B26 as the binder, how does the Kd read?
**A.** 39.5 ± 5 nM

**Q.** B27 was tested. Which Kd did it give?
**A.** 26.5 ± 5 nM

**Q.** With B28 as the binder, how does the Kd read?
**A.** 30.4 ± 3.7 nM

**Q.** How did the Kd turn out when B29 was run?
**A.** 30.4 ± 2.25 nM

**Q.** How did the Kd turn out when B30 was run?
**A.** 22.1 ± 2.55 nM

**Q.** With B31 as the binder, how does the Kd read?
**A.** 54 ± 12 nM

**Q.** B32 was tested. Which Kd did it give?
**A.** 10.8 ± 0.4 nM

**Q.** For B33, which Kd is on record?
**A.** 28.6 ± 2.4 nM

— article PMC10786891, “Massively parallel profiling of RNA-targeting CRISPR-Cas13d”
